From US20250282881A1 (SHANGHAI EPIMAB BIOTHERAPEUTICS, published 2025)

T1: recombinant human OX40/His fusion protein (Novoprotein, CB17) (human, UniProt P43489 29-216)
T1 construct: Bought protein
T1 sequence: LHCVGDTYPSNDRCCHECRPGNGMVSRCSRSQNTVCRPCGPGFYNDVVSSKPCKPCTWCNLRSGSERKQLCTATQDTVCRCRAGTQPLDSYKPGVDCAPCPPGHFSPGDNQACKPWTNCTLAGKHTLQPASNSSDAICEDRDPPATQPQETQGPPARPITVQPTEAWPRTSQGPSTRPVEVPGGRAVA

T2: ΔCRD1-3 (human, UniProt P43489)
T2 construct: extracellular domain without CRD1, CRD2 and CRD3 (CRD4 left); also called truncated OX40 variant lacking CRD1, CRD2 and CRD3
T2 sequence (truncated extracellular domain, looked up): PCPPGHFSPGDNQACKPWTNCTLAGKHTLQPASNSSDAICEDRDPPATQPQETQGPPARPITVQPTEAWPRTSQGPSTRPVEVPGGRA

T3: human OX40 on cells (CHO-K1-hOX40, CHO-OX40, Jurkat-OX40 reporter cells) (human, UniProt P43489 29-277)
T3 construct: also called human OX40-transfected CHO cell; CD134
T3 sequence: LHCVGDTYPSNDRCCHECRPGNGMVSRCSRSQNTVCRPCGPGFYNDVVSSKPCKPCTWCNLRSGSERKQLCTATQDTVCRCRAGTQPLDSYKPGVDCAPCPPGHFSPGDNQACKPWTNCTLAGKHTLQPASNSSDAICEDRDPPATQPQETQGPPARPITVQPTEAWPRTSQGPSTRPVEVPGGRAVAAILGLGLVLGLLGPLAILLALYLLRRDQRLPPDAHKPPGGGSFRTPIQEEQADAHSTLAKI

B1: EM0005-86c (antibody, V domains shown)
VH: QVQLQQSGAELVRPGSSVKMSCKTSGYTFTTYGINWVKQRPGQGLEWIGYIYIGNGYTEYNEKFKGKATLTSDPSSRTAYMQLSSLTSEDSAIYFCARDLMVIAPKTMDYWGQGTSVTVSS
VL: DIQMNQSHKFMSTSVGDRVSITCKASQDVGTAVAWYQQKPGQSPKLLIYWASTRHTGVPDRFTGGGSGTDFTLTISNVQSEDLADYFCQQYSSYPYTFGGGTKLEMK
notes: Chimeric anti-PD-L1; captured on anti-human IgG Fc sensors
B2: HuEM1007-044-16 (antibody, human IgG1, kappa, L234A L235A, V domains shown)
VH: EVQLQQSGAEVKKPGSSVKVSCKASGHAFSSSWMNWVKQRPGKGLEWIGRIYPGDEITNYNAKFKDKATLTADKSTSTAYMELSSLRSEDTAVYYCARDLLMPYWGQGTLVTVSS
VL: DIVMTQTPLSLPVTPGEPASISCRSSKSLLYSNAITYLYWYLQKPGQSPQLLIYQMSNLAPGVPDRFSSSGSGTDFTLKISRVEAEDVGVYYCAQNLELPFTFGQGTKLEIKR
notes: Humanized anti-OX40, human IgG1 LALA / kappa; parental antibody of FIT1014-20a; also called HuEM1007-44-16; parental OX40 antibody

Key:
[1] = biological target: T4, recombinant human PD-L1/His fusion protein (Novoprotein, Cat. No. C315) (human, UniProt Q9NZQ7 19-239); test: BLI (Octet RED96), antibody on AHC sensor, PD-L1/His as analyte, test group 2 (the reference itself)
T4 construct: also called recombinant human PD-L1-his protein
T4 sequence (Q9NZQ7 19-239 limits assumed): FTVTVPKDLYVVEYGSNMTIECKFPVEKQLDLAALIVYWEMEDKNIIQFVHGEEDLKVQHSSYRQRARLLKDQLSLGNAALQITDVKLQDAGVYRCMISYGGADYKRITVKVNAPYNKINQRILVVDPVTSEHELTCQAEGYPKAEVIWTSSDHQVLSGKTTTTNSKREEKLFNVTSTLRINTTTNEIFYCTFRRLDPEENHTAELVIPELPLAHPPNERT
Excerpt: (§1) Based on titer and purity, 10 of the 50 humanized antibodies were selected and further assayed in two groups for dissociation rate constant (koff) as shown in Table 7. Chimeric antibody EM0005-86c having VH/VL sequences identical to EM0005-mAb86 (as provided in Table 6) was used as a positive control in each group and served as a basis for normalization. Briefly, antibodies were characterized for affinities and binding kinetics by Octet® RED96 biolayer interferometry (Pall FortéBio LLC). Anti-hIgG Fc Capture (AHC) Biosensors (Pall) with antibody captured at a concentration of 100 nM for 120 seconds were dipped into running buffer (1× pH 7.2 PBS, 0.05% Tween 20, 0.1% BSA) for 60 seconds to check the baseline, then dipped into a single concentration of recombinant human PD-L1/His fusion protein (Novoprotein, Cat. No. C315) to measure binding for 200 seconds, followed by dipped into running buffer to measure dissociation for 600 seconds. The association and dissociation curves were fitted to a 1:1 Langmuir binding model using FortéBio Data Analysis software (Pall). The off-rate ratios shown in Table 7 were calculated by off-rate of a humanized antibody to that of EM0005-86c in the same test group. The off-rate ratio serves as a normalized index, so that the humanized antibodies can be compared to one another across test groups. […]

[2] = biological target: T4, recombinant human PD-L1/His fusion …; test: BLI (Octet RED96), antibody on AHC sensor, PD-L1/His as analyte, test group 1
Excerpt: Based on titer and purity, 10 of the 50 humanized antibodies were selected and further assayed in two groups for dissociation rate constant (koff) as shown in Table 7. Chimeric antibody EM0005-86c having VH/VL sequences identical to EM0005-mAb86 (as provided in Table 6) was used as a positive control in each group and served as a basis for normalization. Briefly, antibodies were characterized for affinities and binding kinetics by Octet® RED96 biolayer interferometry (Pall FortéBio LLC). Anti-hIgG Fc Capture (AHC) Biosensors (Pall) with antibody captured at a concentration of 100 nM for 120 seconds were dipped into running buffer (1× pH 7.2 PBS, 0.05% Tween 20, 0.1% BSA) for 60 seconds to check the baseline, then dipped into a single concentration of recombinant human PD-L1/His fusion protein (Novoprotein, Cat. No. C315) to measure binding for 200 seconds, followed by dipped into running buffer to measure dissociation for 600 seconds. The association and dissociation curves were fitted to a 1:1 Langmuir binding model using FortéBio Data Analysis software (Pall). The off-rate ratios shown in Table 7 were calculated by off-rate of a humanized antibody to that of EM0005-86c in the same test group. The off-rate ratio serves as a normalized index, so that the humanized antibodies can be compared to one another across test groups. The lower off-rate ratio indicates higher affinity of an antibody for human PD-L1. HuEM0005-86-21 was selected for further investigation based on the purity and off-rate data.

[3] = biological target: T4, recombinant human PD-L1/His fusion …; test: BLI (Octet RED96), antibody on AHC sensor, PD-L1/His as analyte, test group 1 (the reference itself)
Excerpt: as §1

[4] = biological target: T4, recombinant human PD-L1/His fusion …; test: BLI (Octet RED96), antibody on AHC sensor, PD-L1/His as analyte, test group 2
Excerpt: as §1

[5] = biological target: T1, recombinant human OX40/His fusion …; test: BLI (Octet RED96), antibody on AHC sensor, OX40/His as analyte, test group 4
Procedure: All 17 antibodies in Table 4 were expressed by transient transfection of HEK293 cell, purified by Protein A chromatography, and assayed for and ranked by dissociation rate constant (koff). Briefly, antibodies binding affinities and kinetics were characterized by Octet® RED96 biolayer interferometry (Pall FortéBio LLC). Antibodies were captured by Anti-hIgG Fc Capture (AHC) Biosensors (Pall) at a concentration of 100 nM for 120 seconds. After that, sensors were dipped into running buffer (1× pH 7.2 PBS, 0.05% Tween 20, 0.1% BSA) for 60 seconds to check the baseline, then dipped into recombinant human OX40/His fusion protein (Novoprotein, CB17) at assigned concentration for 200 seconds to measure binding, followed by dipped into running buffer for 600 seconds for dissociation. The assay was conducted in four test groups (as listed in Table 5) all containing the EM1007-044c chimeric antibody as the basis for normalization. The association and dissociation curves were fitted to a 1:1 Langmuir binding model using ForteBio Data Analysis software (Pall) to obtain the off-rate constants as shown in Table 5 below. The off-rate of each antibody was compared to that of the EM1007-mAb044c chimeric antibody in the same test group obtained in parallel to produce the corresponding off-rate ratio, serving as a normalized index. […]

ΔCRD1-3 = biological target: T2, ΔCRD1-3; test: ELISA, OX40 variant coated at 1 µg/ml, HRP-labeled secondary antibody, OD 450 nm
Excerpt: The 4 cysteine rich domains (CRD) from OX40 extracellular domain were identified from UniProt (Identifier: P43489), and full length of extracellular OX40 (CRD1-4) and truncated OX40 variants ΔCRD1 (lacking CRD1), ΔCRD1-2 (lacking CRD1 and CRD2), ΔCRD1-3 (lacking CRD1, CRD2 and CRD3), mCRD1 (CRD1-4 with CRD1 domain therein replaced by murine CRD1), mCRD2 (CRD1-4 with CRD2 domain therein replaced by murine CRD2), mCRD3 (CRD1-4 with CRD3 domain therein replaced by murine CRD3), and mCRD4 (CRD1-4 with CRD4 domain therein replaced by murine CRD4) were synthesized by Biointron. The binding of HuEM1007-044-16, OX40-Tab1 (WO2015153513), OX40-Tab2 (WO2020151761) to OX40 or OX40 truncated proteins were analyzed using ELISA to identify the pertinent binding epitope. Briefly, OX40 variants were each coated at 1 μg/ml onto a 96 well plate (Corning, #3361) which was incubated overnight at 4° C., washed with PBS containing 0.05% Tween 20, blocked with blocking buffer (PBS containing 0.05% Tween 20 and 2% BSA) at 37° C. for 2 hours. On the coated and blocked plate, serially diluted antibodies were added and incubated at 37° C. for 1 hour, washed for 3 times, then added HRP-labeled secondary antibody. Tetramethylbenzidine (TMB) chromogenic solution was added for color development for 5 minutes then the reaction was quench with 1M HCl. Absorbance at 450 nm (OD450) was measured on a microplate reader.

[6] = biological target: T3, human OX40 on cells (CHO-K1-hOX40, …); test: FACS on human OX40 transfected CHO cells
Procedure: Cell binding affinity of PD-L1/OX40 antibodies were measured against CHO (ATCC, #CCL-61) overexpressing human PD-L1 (CHO-PD-L1) and CHO overexpressing OX40 (CHO-OX40), respectively. Briefly, 5×10⁵ cells were seeded into each well of a 96-well plate (Corning, #3799). Cells were centrifuged at 400 g for 5 minutes and supernatants were discarded. For each well, 100 μl of 3× serial dilution of antibodies starting from 100 nM were then added and mixed with the cells. After 60 minutes of 4° C. incubation, plates were washed several times to remove excess antibodies. […] After another round of centrifugation and washing, cells were resuspended in FACS buffer for reading on a CytoFLEX Flow Cytometer (Beckman Coulter). Median Fluorescence Intensity (MFI) readouts were plotted against antibody concentration and analyzed with GraphPad Prism 8.0.

Row | Binder | Off-Rate Ratio to EM0005-86c [1] | koff [2] | Off-Rate Ratio to EM0005-86c [3] | koff [4] | Normalized Index (off-rate ratio to EM1007-mAb044c) [5] | koff [5] | binding result (ΔCRD1-3) | EC50 [6]
1 | B1 | 100% | 0.000272 s⁻¹ | 100% | 0.000146 s⁻¹ | – | – | – | –
2 | B2 | – | – | – | – | 126% | 0.000352 s⁻¹ | no binding (tested: about 25 nM) | 1.8 nM
